Test results: article PMC4894940, “The function of the two-pore channel TPC1 depends on dimerization of its carboxy-terminal helix” (Cellular and Molecular Life Sciences: CMLS, 2016)
Residues, ends and D or L forms follow the SMILES beside them.

Columns and labels:
[1] = molecular target: wild type peptide labeled by tryptophane (Arabidopsis thaliana, UniProt Q94KI8); assay: Label-free MicroScale Thermophoresis (MST), CTH wild type peptide; type: binding; details: 750 nM tryptophane-containing target peptide, ligand 3 nM to 100 µM, PBS pH 7.5, 1 % DMSO, 0.1 % Pluronic, 25 °C, 80 % MST power, 100 % LED power, technical duplicates, read-out: dissociation constant (K D) of CTH homo-dimerization
Procedure: (§1) For MST experiments, peptides corresponding to the consensus helical sequence (RSQRVDTLLHHMLGDEL) and the 3LA mutant (RSQRVDTAAHHMAGDEL) were synthesized (Peptide Speciality Laboratories GmbH, Heidelberg, Germany). To allow for label-free MST binding experiments, additional wild type and mutant peptides were synthesized, which were C-terminally extended by addition of two tryptophanes and a short linker (AAWW).
(§2) Labelfree MicroScale Thermophoresis binding experiments were performed in cooperation with the 2bind GmbH (Regensburg, Germany), using 750 nM tryptophane containing target peptide in PBS pH 7.5, 1 % DMSO, 0.1 % Pluronic with varied concentrations of the ligand peptide at 80 % MST power, 100 % LED power in hydrophilic zero background capillaries on a Monolith NT.labelfree device at 25 °C (NanoTemper Technologies, Munich, Germany). Normalized fluorescence data sets (WT peptide and MT peptide) were analyzed in the thermophoresis and temperature jump. For determination of the binding affinity (K D) of the wild type peptide, the recorded fluorescence was normalized to the fraction bound (0 = unbound, 1 = bound), and fitted using the K D fit formula derived from the law of mass action. Technical duplicates were performed for each experimental setup.

[2] = test system: tryptophane-labeled 3LA mutant CTH peptide; assay: Label-free MicroScale Thermophoresis (MST), 3LA mutant CTH peptide; type: binding, Arabidopsis thaliana; details: 3 nM to 100 µM, 750 nM tryptophane-labeled peptide, PBS pH 7.5, 1 % DMSO, 0.1 % Pluronic, 25 °C, technical duplicates
Procedure: as §1, §2

[3] = test system: Myc-tagged C-terminus of TPC1; assay: Co-immunoprecipitation of TPC1 C-termini in HEK293T cells; type: binding, Arabidopsis thaliana; details: IP anti-Myc, WB anti-Myc / anti-Flag, 3 independent experiments
Description: For the Co-IP tests the C-terminally tagged GFP-fusions were used as templates to amplify the soluble C-terminus (amino acids 673–733) of TPC1 or TPC1-3LP fused to GFP with PCR. The constructs were subcloned into the pENTR-D-TOPO vector and afterwards brought into the expression vectors with EcoRI and XhoI (New England Biolabs), so that they were N-terminally tagged either with 6x Myc (pCS2+MT) or with the FLAG-tag (pCS2 + Flag).
HEK293T cells were propagated in DMEM GIBCO Glutamax (Life Technologies) supplemented with 10 % fetal calf serum. Cells were seeded in 6–well plates (20–30 % confluency) and transfected the next day using 10 µl Roti-Fect (Carl Roth) per 2 µg total DNA (1 µg DNA per plasmid). Two days after transfection cells were washed with 2 ml PBS buffer (Life Technologies) and harvested for immunoprecipitation in 150 µl cold lysis buffer (10 mM HEPES, 150 mM NaCl, 1 % Nonidet P40, 5 % glycerol, pH 7,4/KOH) supplemented with protease inhibitors and phosphatase inhibitors (Complete mini EDTA free and PhosStop, Roche). Cells were disrupted mechanically with a syringe (cannula diameter 0.55 mm). The lysate was cleared by centrifugation at 13.500 rpm and 4 °C for 10 min. Total protein concentrations were measured with a bicinchoninic acid protein assay (Applichem), typically the total protein amount was 500–600 µg. Loading controls of 50 µg of the lysate were taken accordingly and filled up to 20 µl with lysis buffer before adding 5 µl of 5x sample buffer (250 mM Tris, 5 % SDS, 25 % glycerol, 0.25 % bromophenol blue, 250 mM β–mercaptoethanol, pH 6.8/HCl) and boiling. For immunoprecipitation, 3 µg of mouse anti-c-Myc Epitope antibody 9E10 (sc-40, Santa Cruz) was used per sample. Samples were incubated with the antibody for 45 min at 4 °C with a rotator, then 10 µl of protein G Dynabeads (Life Technologies) equilibrated in the lysis buffer was added to each sample and incubation continued for another 45 min. Samples were washed three times with cold lysis buffer before eluting three times with 20 µl of 100 mM glycine (pH 2.5/HCl). […]

[4] = test system: TPC1 subunits co-expressed in Nicotiana benthamiana leaves; assay: Bimolecular fluorescence complementation (Split Venus BiFC); type: cell-based; details: N. benthamiana leaves, plate reader and confocal
Procedure: For BiFC analyses the gateway entry vector pENTR-D-TOPO and the destination vectors pDEST–^GWVYCE and pDEST–^GWVYNE were used for C-terminal fusion of the Venus C- and N-terminus, respectively, and pDEST–VYCE(R)^GW and pDEST–VYNE(R)^GW for N-terminal tagging.
BiFC studies were performed as described using a Split Venus system. The Agrobacterium strain C58C1 [42] harboring the plasmid of interest and the helper strain p19 [43] were grown in LB medium supplemented with 100 µg/ml Kanamycin at 29 °C overnight. The cultures were brought to an optical density (OD600) of 1.0 in infiltration buffer (10 mM MES, 10 mM MgCl2, 100 µM acetosyringone, pH 5.7/KOH) and the combinations to test for co-expression mixed at equal amounts. The p19 helper strain (OD600 = 1.0) was added to these mixtures in a 1:1 ratio. Suspensions were incubated for 2 h before infiltration into the abaxial side of 6-week-old N. benthamiana leaves. Each leaf was infiltrated with several plasmid combinations and a positive control (TPC1/pDEST-^GWVYCE and TPC1/pDEST-^GWVYNE) as well as a negative control (p19 alone) at separated areas to monitor comparability of the transient expression and to define background fluorescence.
For fluorescence quantification leaf disks (Ø 6 mm) were cut out of the infiltrated areas with a cork borer 2.5 day after infiltration. Leaf disks were placed upside-down in a black 96-well plate prefilled with 70 µl H2O per well to minimize dehydration effects. Fluorescence was measured with a plate-reader (Infinite F200, Tecan) with an excitation wavelength of 485 ± 20 nm and an emission wavelength of 525 ± 25 nm.

tonoplast = assay: Confocal localization of GFP-fusions in tpc1-2 mesophyll protoplasts; type: cell-based, Arabidopsis thaliana; details: GFP-fusion in tpc1-2 mesophyll protoplasts
Procedure: Expression of GFP-fusion proteins for electrophysiological measurements or confocal microscopy was performed in A. thaliana tpc1-2 mesophyll protoplasts as described. Briefly, leaves were enzymatically digested to release mesophyll protoplasts, which were then transformed by the polyethylene glycol method. Protoplasts were used for electrophysiological measurements and subcellular localization of GFP fluorescence 2–4 days after transformation.
Fluorescence signals were detected and documented with a TCS SP2 confocal laser scanning microscope and the Leica Confocal Software (Leica Microsystems). A 488 nm Argon laser was used for excitation of GFP and of the auto-fluorescence of chlorophyll. GFP-signals were detected from 500 to 556 nm and chlorophyll signals from 675 to 767 nm. Venus was excited with a […] and detected in the range from 520 to 556 nm, the corresponding chlorophyll signals were detected from 637 to 736 nm. Images were processed with Photoshop (Adobe Systems).

[5] = molecular target: the molecule itself; assay: MST; label-free MST; 750 nM tryptophane-containing target peptide in PBS pH 7.5, 1 % DMSO, 0.1 % Pluronic, unlabeled ligand peptide varied from 3 nM to 100 µM, 25 °C, Monolith NT.labelfree; monomer to dimer

## CSCC[C@H](NC(=O)[C@H](Cc1c[nH]cn1)NC(=O)[C@H](Cc1c[nH]cn1)NC(=O)[C@H](CC(C)C)NC(=O)[C@H](CC(C)C)NC(=O)[C@@H](NC(=O)[C@H](CC(=O)O)NC(=O)[C@@H](NC(=O)[C@H](CCCNC(=N)N)NC(=O)[C@H](CCC(N)=O)NC(=O)[C@H](CO)NC(=O)[C@@H](N)CCCNC(=N)N)C(C)C)[C@@H](C)O)C(=O)N[C@@H](CC(C)C)C(=O)NCC(=O)N[C@@H](CC(=O)O)C(=O)N[C@@H](CCC(=O)O)C(=O)N[C@@H](CC(C)C)C(=O)O [CTH peptide] (H-RSQRVDTLLHHMLGDEL-OH)
[1]
  Kd: 3.85 ± 1.1 µM

## RSQRVDTAAHHMAGDEL [3LA mutant, 3LA mutant CTH peptide …]
[2]
  interaction in MST: no interaction was measured
[2]; listed as 3-LA peptide
  interaction in MST: no interactions
[2]; listed as CTH-3LA
  interaction in MST: lack of dimer formation

B1: C-terminus of the TPC1-3LP-mutant: soluble C-terminus of TPC1-3LP, N-terminally 6xMyc- or FLAG-tagged, C-terminal GFP fusion (protein)
chain: EAFFTELDLEEEEKCQGQDSQEKRNRRRSAGSKSRSQRVDTPPHHMPGDELSKPECSTSDT-eGFP
modifications: not fully specified (N-terminus); also: N-terminally 6xMyc- or FLAG-tagged
notes: soluble C-terminus of TPC1-3LP, N-terminally 6xMyc- or FLAG-tagged, C-terminal GFP fusion
[3]
  Co-IP of C-termini: reduced ability to dimerize
[3]; listed as 3LP-Flag-Ct
  Co-IP of C-termini: visibly weaker interaction of the two C-termini

B2: TPC1 C-terminus: soluble C-terminus (residues 673–732) of wild type TPC1, N-terminally 6xMyc- or FLAG-tagged, C-terminal GFP fusion (protein)
chain: EAFFTELDLEEEEKCQGQDSQEKRNRRRSAGSKSRSQRVDTLLHHMLGDELSKPECSTSDT-eGFP
modifications: not fully specified (N-terminus); also: N-terminal 6xMyc or FLAG tag
notes: soluble C-terminus (residues 673–732) of wild type TPC1, N-terminally 6xMyc- or FLAG-tagged, C-terminal GFP fusion
[3]
  Co-IP of C-termini: bound to itself

B3: N-terminally tagged TPC1: TPC1 subunits N-terminally tagged with Venus halves (BiFC) or GFP (localization) (protein)
chain: MEDPLIGRDSLGGGGTDRVRRSEAITHGTPFQKAAALVDLAEDGIGLPVEILDQSSFGESARYYFIFTRLDLIWSLNYFALLFLNFFEQPLWCEKNPKPSCKDRDYYYLGELPYLTNAESIIYEVITLAILLVHTFFPISYEGSRIFWTSRLNLVKVACVVILFVDVLVDFLYLSPLAFDFLPFRIAPYVRVIIFILSIRELRDTLVLLSGMLGTYLNILALWMLFLLFASWIAFVMFEDTQQGLTVFTSYGATLYQMFILFTTSNNPDVWIPAYKSSRWSSVFFVLYVLIGVYFVTNLILAVVYDSFKEQLAKQVSGMDQMKRRMLEKAFGLIDSDKNGEIDKNQCIKLFEQLTNYRTLPKISKEEFGLIFDELDDTRDFKINKDEFADLCQAIALRFQKEEVPSLFEHFPQIYHSALSQQLRAFVRSPNFGYAISFILIINFIAVVVETTLDIEESSAQKPWQVAEFVFGWIYVLEMALKIYTYGFENYWREGANRFDFLVTWVIVIGETATFITPDENTFFSNGEWIRYLLLARMLRLIRLLMNVQRYRAFIATFITLIPSLMPYLGTIFCVLCIYCSIGVQVFGGLVNAGNKKLFETELAEDDYLLFNFNDYPNGMVTLFNLLVMGNWQVWMESYKDLTGTWWSITYFVSFYVITILLLLNLVVAFVLEAFFTELDLEEEEKCQGQDSQEKRNRRRSAGSKSRSQRVDTLLHHMLGDELSKPECSTSDT
modifications: left off: Venus C-terminal half (VC, one copy) or Venus N-terminal half (VN, the other copy), N-terminal, kept
[4]
  BiFC signal: did not result in Venus-fluorescence
tonoplast
  subcellular localization of GFP-fusion: tonoplast localization

B4: Synthetic wild type CTH peptide (consensus C-terminal helix of TPC1, residues 707-723) (peptide)
peptide: RSQRVDTLLHHMLGDEL
notes: The two copies are written as one molecule; also called WT peptide; wild type peptide; source: synthetic peptide (Peptide Speciality Laboratories GmbH); not shown: AAWW (short linker and two tryptophans; only on the target copy held at 750 nM), C-terminal, kept
[5]
  Kd: 3.85 ± 1.1 µM
